Data: publication doi:10.1101/2020.04.07.030676

Target: soluble αβ-tubulin heterodimer (bovine) (UniProt Q6B856)
Assay: ITC

B1: MEKK1 TOG domain, MEKK1(542–888) (domain or fragment)
chain: THYGTQQIPPAYKDLAEPWIQVFGMELVGCLFSRNWNVREMALRRLSHDVSGALLLANGESTGNSGGSSGSSPSGGATSGSSQTSISGDVVEACCSVLSMVCADPVYKVYVAALKTLRAMLVYTPCHSLAERIKLQRLLQPVVDTILVKCADANSRTSQLSISTLLELCKGQAGELAVGREILKAGSIGIGGVDYVLNCILGNQTESNNWQELLGRLCLIDRLLLEFPAEFYPHIVSTDVSQAEPVEIRYKKLLSLLTFALQSIDNSHSMVGKLSRRIYLSSARMVTTVPHVFSKLLEMLSVSSSTHFTRMRRRLMAIADEVEIAEAIQLGVEDTLDGQQDSFLQAS
Kd: 630 nM | stoichiometry N: 1
